In article PMC7608914:

Molecular target: Alexa488-labeled Nuc165 (human)
Test: fluorescence polarisation; HPF1 titrated from 16.8 μM to 0 μM into 5 nM Alexa488-labeled Nuc165; 50 mM Tris-HCl pH 8, 50 mM NaCl, 1 mM MgCl2, 0.1 mM EDTA, 0.1 mM TCEP, 0.01% NP-40; Hill model

B1: Histone PARylation Factor 1 (natural protein)
chain: MVGGGGKRRPGGEGPQCEKTTDVKKSKFCEADVSSDLRKEVENHYKLSLPEDFYHFWKFCEELDPEKPSDSLSASLGLQLVGPYDILAGKHKTKKKSTGLNFNLHWRFYYDPPEFQTIIIGDNKTQYHMGYFRDSPDEFPVYVGINEAKKNCIIVPNGDNVFAAVKLFLTKKLREITDKKKINLLKNIDEKLTEAARELGYSLEQRTVKMKQRDKKVVTKTFHGAGLVVPVDKNDVGYRELPETDADLKRICKTIVEAASDEERLKAFAPIQEMMTFVQFANDECDYGMGLELGMDLFCYGSHYFHKVAGQLLPLAYNLLKRNLFAEIIEEHLANRSQENIDQLAA
Kd: 1450 nM
